# Reference: US12018084B2, “Anti-CXCR2 antibodies and uses thereof” (Cephalon LLC, priority 2018, dated 2024)
# Changes are numbered by the printed parent chain. Where “and” joins values, the source holds several entries; their conditions need not be identical. Equal entries are not always repeated.
# B1: BKO-4A8: parental anti-CXCR2 antibody, VH SEQ ID NO: 17, VL SEQ ID NO: 18 (antibody, V domains shown)
# VH: EVQLLESGGGLVQPGGSLRLSCAASGFTFSSSTMSWVRQAPGKGLEWVSAISGRGRNTYYADSVKGRFTISRDNSRNTLYLQMNSLRAEDTAVYYCAIQMGYWGQGILVTVSS
# VL: QSALTQPPSASGSPGQSVTISCIGTSSDVGGYNYVSWYQQHPDKAPKLMIYEVNKRPSGVPDRFSGSKSGNTASLTVSGLQAEDEADYYCSSYAGNNNFGVFGGGTKLTVL
# modifications: BKO_4A8_VH; BKO_4A8_VL
# B2: 101c: VH SEQ ID NO: 108, VL SEQ ID NO: 110; renamed BKO-4A8-101c (antibody, V domains shown)
# VH: B1 VH with M34Q, A40P, N57S, R76K, M100A
# VL: B1 VL with D43G, N54S, N96S
# modifications: 4A8 VH Variant 101 M34Q_A40P_N56S_R75K_M96A; 4A8 VL variant c D41G_N52S_N94S
# notes: renamed BKO-4A8-101c
# Tests used:
# Human CXCR2 [1] = biological target: T1, Human CXCR2 (Homo sapiens, UniProt P25025); assay: Flow cytometry binding assay, Expi293F cells transiently transfected with human CXCR2; design: host or cells: Expi293F cells, vector pTT5
# T1 sequence (P25025 1-360): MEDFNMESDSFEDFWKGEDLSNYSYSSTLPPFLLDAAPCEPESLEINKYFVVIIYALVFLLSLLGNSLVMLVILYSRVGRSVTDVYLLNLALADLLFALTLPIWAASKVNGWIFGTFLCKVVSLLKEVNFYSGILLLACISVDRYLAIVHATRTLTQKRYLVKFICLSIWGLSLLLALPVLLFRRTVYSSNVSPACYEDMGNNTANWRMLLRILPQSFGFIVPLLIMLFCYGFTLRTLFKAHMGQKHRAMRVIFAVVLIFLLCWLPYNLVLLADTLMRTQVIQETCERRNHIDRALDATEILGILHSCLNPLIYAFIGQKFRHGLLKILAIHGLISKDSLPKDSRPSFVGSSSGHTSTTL
# Experimental: For each 10 mL transfection, lipid-DNA complexes were prepared by diluting 10 μg of plasmid DNA in Opti-MEM™ I Reduced Serum Medium (Cat. no. 31985-062) to a total volume of 1.0 mL. 54 μL of ExpiFectamine™ 293 Reagent was diluted in Opti-MEM™ I medium to a total volume of 1.0 mL. Transfections were carried out according to manufacturer's instructions. The cells were incubated in a 37° C. incubator with a humidified atmosphere of 8% CO2 in air on an orbital shaker rotating at 200 rpm. Approximately 18-24 hours post-transfection, the cell viability was evaluated and transfected cells harvested for use.
# Harvested cells were resuspended in FACS buffer (1×PBS+0.5% (w/v) bovine serum albumin (BSA)+2 mM EDTA pH 7.2). Approximately 2×10^5 cells were added per well in a 96-well round-bottomed plate. Cells were pelleted by centrifugation at 400 g for 5 mins at 4° C. and supernatants discarded. 25 μL of each test antibody or control antibody was added to the cells and incubated for 30 minutes at 4° C. Cells were washed twice in 100 μL FACS buffer followed by centrifugation at 400 g for 5 mins at 4° C.
# For detection, 50 μL of secondary antibody (Table 2) was added to relevant samples. Commercially available antibodies that bound to transfected CXCR family members were used as positive controls to ensure that the cells were expressing the receptors. Cells were washed twice in 200 μL of FACS buffer followed by centrifugation at 400 g for 5 mins at 4° C. Before sample acquisition, cells were resuspended in 100 μL of FACS buffer. Samples were acquired using the high throughput sampler on a FACSCanto™ II cytometer (Beckton-Dickinson).
# Binding of BKO-4A8 and variants thereof was detected by incubation of fluorochrome-conjugate anti-human IgG light chain lambda antibody. The binding activity of antibodies tested, quantified as mean fluorescent intensity, was independent of the antibody Fc region as illustrated in FIG. 9.
# Human CXCR2 [2] = biological target: T1, Human CXCR2; assay: cELISA of hybridoma supernatants on cells transfected with human CXCR2; format: binding; design: host or cells: Expi293F cells, vector pTT5; conditions: hybridoma supernatant; fluorescence units relative to positive control (100%)
# Experimental: To generate hybridomas which produced monoclonal antibodies to human CXCR2, splenocytes and/or lymph node cells from animals with the highest anti-CXCR2 titres were isolated and fused to mouse myeloma cells (ATCC, CRL-1580). Cells were plated at approximately 1×10^5 cells/mL in flat bottom microtiter plates, followed by a two week incubation in selective medium (10% FCS and 1×HAT (Sigma)). Hybridomas were expanded by serial passage through four media changes in 96-well plates (96-well stages 1 to 4), then, where required, expanded into T25 and T75 flasks. […] Bound antibodies were detected using a goat anti-rat IgG-HRP (Southern Biotech, #3030-05) secondary antibody.
# A panel of hybridomas was generated using lymph nodes and spleen cells from the transgenic rats engineered to express human variable region sequences. A cellular ELISA (cELISA) was used to detect human CXCR2 binding activity in supernatants taken during the expansion process for the hybridomas (Table 5). Hybridomas that retained expression of antibodies that bound CXCR2 after several passages were selected for DNA sequencing.
# Murine CXCR2 = biological target: T2, Murine CXCR2 (Mus musculus, UniProt P35343); assay: cELISA of hybridoma supernatants on cells transfected with murine CXCR2; format: binding; conditions: hybridoma supernatant; fluorescence units relative to positive control (100%)
# T2 construct: expressed in transfected cells
# T2 sequence (P35343 1-359): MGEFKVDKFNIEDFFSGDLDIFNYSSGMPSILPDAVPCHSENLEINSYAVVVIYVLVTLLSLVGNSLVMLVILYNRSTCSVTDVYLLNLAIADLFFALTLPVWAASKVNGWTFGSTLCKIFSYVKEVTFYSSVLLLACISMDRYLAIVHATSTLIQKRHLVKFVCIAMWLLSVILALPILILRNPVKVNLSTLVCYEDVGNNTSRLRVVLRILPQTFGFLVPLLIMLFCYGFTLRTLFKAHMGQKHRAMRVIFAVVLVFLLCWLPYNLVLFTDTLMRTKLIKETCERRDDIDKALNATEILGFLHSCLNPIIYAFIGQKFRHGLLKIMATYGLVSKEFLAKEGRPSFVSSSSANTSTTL
# cynomolgus monkeys = assay: LPS induced acute lung inflammation in cynomolgus monkey; format: in vivo
# Experimental: Biologics naïve (i.e. not previously administered exogenous biologics) male cynomolgus monkeys were randomized into groups receiving vehicle or the anti-CXCR2 antibody BKO-4A8-101c administered by intravenous administration at a dose of 1 mg/kg on days 0, 14, and 28. One hour post-treatment of test antibodies on day 0, animals were exposed to aerosolized bacterial lipopolysaccharide (LPS) by inhalation of 20 μg/L for 5 mins (total dose 20 μg/kg). This is a well-established model of acute lung inflammation. Inflammatory responses were characterized at 24 hours after LPS exposure by total and differential cell counts of bronchoalveolar lavage fluid of the left lung and compared to matched counts from naïve animals at pre-treatment day 14. Blood was collected at various time points for differential cell count and serum collected for pharmacokinetic analysis.
# [3] = 1 mg/kg intravenous days 0, 14, 28
Molecule,"Max binding (MFI) (Human CXCR2 [1]; combinatorial variants with light chain c, listed as 4A8 Control)","EC50 (Human CXCR2 [1]; combinatorial variants, Table 11)",Human CXCR2 % Positive (Human CXCR2 [2]),Murine CXCR2 % Positive (Murine CXCR2),"LPS-induced pulmonary neutrophilia (cynomolgus monkeys; 1 mg/kg intravenous 1 hour before LPS, BAL 24 hours after LPS)",blood neutrophil counts following repeat dosing (cynomolgus monkeys; [3]),"tolerability, body weight (cynomolgus monkeys; [3])"
B1,62074 MFI and 82797 MFI,0.4 nM,110%,5%,–,–,–
B2,–,–,–,–,markedly inhibited,did not induce measurable changes,well tolerated with no loss in body weight
